# “Also recorded” adds a separate entry of the source.
# Key:
# [1] = test system: T98G and REF52 cells; test: Immunofluorescence of actin stress fibres and focal contacts; assay type: cell-based
# Protocol: 10^4 cells were transferred onto 4-well Cellstar plastic plates (Greiner) that were coated with ECM proteins as described. Cells were fixed with 4% paraformaldehyde, 50 mM phosphate buffer, 5 mM EDTA in PBS for 15 minutes, blocked with 3% BSA, 0.5% Tween-20 in PBS and incubated with primary and secondary antibodies in blocking solution. Slides were embedded in 10.5% Mowiol containing 2.5% DABCO as antifade agent. Expression of syndecans was determined by immunofluorescence.
# (§1) Cells were plated on substrata (FN, FN/TN, FN/TN/III13, FN/TN+III13, III13, or BSA) for 1 h and 2 h, fixed and stained with crystal violet or vinculin and TRITC—labelled phalloidin. Adherent cells were photographed and spread cells were counted. Six-fold molar excess of FNIII13 (4 μg/cm^2) was either bound to a mixed fibronectin/tenascin-C substratum prior to addition of the cells (FN/TN/III13) or, was added in solution together with the cells (FN/TN+FNIII13). Proliferation of MDA-MB435 cells and DNA replication of T98G glioblastoma cells were determined as described in Examples 4 and 5. […] T98G cells plated for 2 h on fibronectin or on the mixed substratum were stained for vinculin. […] In addition, polymerisation of actin into stress fibres was blocked by tenascin-C. No polymerised actin was found.
# [2] = test system: T98G cells, MDA-MB435 cells and rat embryo fibroblasts REF52; test: Attachment assay: cell spreading on fibronectin/tenascin-C with added fibronectin fragment; assay type: cell-based
# Protocol: 60-well microtiter plates (Nunc) were coated with 10 μg/ml ECM molecules giving rise to 1 μg/cm^2 (fibronectin and tenascin-C) and 4 μg/cm^2 (FNIII13) for 1 h at 37° C. ECM proteins were coated separately, starting with fibronectin, followed by tenascin-C, FNIII13 and BSA. The non-coated plastic surface was blocked with 1% heat-inactivated BSA in PBS giving rise to 10 μg/cm^2 protein. Similarly, mixed substrata of collagen I and laminin 1, respectively with tenascin-C were prepared and tenascin-C was detected by ELISA.
# Efficient fibronectin and tenascin-C coating was determined by ELISA with an anti-fibronectin and anti-tenascin-C antibody (Fischer, D. et al (1995) J Biol Chem 270: 3378-3384), respectively and by PAGE analysis of lysed surface-bound ECM material combined with Coomassie Brilliant Blue staining. Before plating, cells were serum starved for 18 h in DMEM containing 1×ITS (insulin, transferrin, selene) supplement, trypsinised, trypsin was blocked with 100 μg/ml soybean trypsin inhibitor in PBS and, cells were resuspended in serum-free medium and counted. 200-500 cells per well were plated for the indicated time points, fixed by addition of glutaraldehyde (2% final concentration) for 15 minutes and stained with 0.1% crystalviolet in 20% methanol for 30 minutes. Cells were observed under a Nikon microscope (Nikon diaphot) and pictures were taken with a Nikon camera.
# as §1
# [3] = test system: tenascin-C; test: In vitro binding assay (ELISA) to tenascin-C; design: species or system chicken; conditions: substratum-immobilised tenascin-C
# Protocol: (§2) 96-well ELISA plates were coated with the indicated ECM proteins for 1 h at 37° C., blocked with 1% milkpowder, 0.05% Tween-20 in PBS. ECM proteins were added at the indicated concentrations in blocking solution for 1 h, washed with blocking solution and anti-fibronectin or anti-tenascin-C antibodies were added. Bound proteins were detected by immune reaction with a peroxidase-coupled secondary antibody specifically recognising anti-fibronectin and anti-tenascin-C antibodies, respectively, followed by colour reaction with 21 mg/ml citric acid 1-hydrate, 34 mg/ml Na2HPO4.2H2O, 0.4 mg/ml phenylenediamine, 1 μl H2O2 that was stopped with 4M sulphuric acid. The absorbance was read at […].
# Bound fragments were detected with a polyclonal anti-fibronectin antibody, bound tenascin-C was detected with a monoclonal anti-tenascin-C antibody.
# [4] = test system: syndecan-4; test: Syndecan-4 immunoprecipitation and immunoblotting for FNIII13; assay type: binding
# Protocol: (§3) To investigate FNIII13 as a potential ligand of syndecan-4, the interaction of syndecan-4 with FNIII13 was tested. Upon addition of FNIII13 to T98G:S4* cells, FNIII13 was detected in a syndecan-4 immunoprecipitation followed by western blotting with a GST specific antibody. This interaction was blocked upon addition of heparin. Parental and syndecan-4 overexpressing T98G:S4* cells were incubated with (100 μg/ml) FNIII13 for 1 h in the presence or absence of 0.5 mg/ml heparin. Syndecan-4-bound FNIII13 was detected by immunoprecipitation of syndecan-4 and immunoblotting for FNIII13. Recombinant FNIII13 was added to the cells in the absence or presence of (0.5 mg/ml) heparin. […] To further test whether FNIII13 binds to syndecan-4, FNIII13 was added to T98G cells and cell surface-bound FNIII13 was detected by pull down of the GST-tagged FNIII13 with glutathione Sepharose followed by western blotting with an anti-His antibody or by immunofluorescence with an anti-GST antibody. […] This interaction could be blocked by heparin showing that syndecan-4 bound FNIII13 in a glycosaminoglycan-dependent manner. In addition, cell surface-bound FNIII13 was detected by immunofluorescence with an anti-His and anti-GST antibody. […] Syndecan-2 expression was determined by incubation with chicken anti-syndecan-2, followed by rabbit anti-chicken and FITC coupled goat anti-rabbit immunostaining.
# [5] = test system: tenascin-C; test: Co-immunoprecipitation with tenascin-C; assay type: binding, chicken
# [6] = test system: FAK (focal adhesion kinase) autophosphorylation at Y397; test: FAK autophosphorylation by immunoblotting; assay type: cell-based, human; conditions: T98G parental and T98G:S4* cells
# Protocol: An experiment was performed to check for the possibility that tenascin-C might compete with syndecan-4 for binding to the HepII site in fibronectin. The experiment tested whether activation of syndecan-4 through overexpression could rescue the tenascin-C-induced spreading defect on fibronectin. Parent T98G cells, pools (T98G:S4) or a selected clone (T98G:S4*) of glioblastoma cells stably overexpressing syndecan-4 (T98G:S4) were plated on the indicated substrata for 30 minutes, 2 h, 18 h or fixed, stained with crystal violet, photographed, and counted or stained with TRITC-labelled phalloidin and vinculin. Syndecan-4 was detected by immunofluorescence with an anti-syndecan-4 antibody. There was no staining with an unspecific anti-His monoclonal antibody (control), nor with the secondary antibody alone. FAK (focal adhesion kinase) autophosphorylation at Y397 and total FAK expression levels were assessed by immunoblotting with specific antibodies. DNA replication was determined as described in Example 4 and 5. As a result, pools of T98G cells (T98G:S4) that overexpressed syndecan-4 thereby activating syndecan-4 attached and spread on the mixed fibronectin/tenascin-C substratum. The majority of the 64.7% of T98G:S4 cells that attached also spread on the fibronectin/tenascin-C substratum. […]
# [7] = test system: T98G:S4* cells; test: Cell surface binding of FNIII13 (pull down, western blotting, immunofluorescence); assay type: cell-based, human; conditions: compared to parental T98G
# Protocol: as §3
# [8] = test system: binding of tenascin-C to surface-immobilised intact fibronectin; test: Competition of tenascin-C binding to surface-immobilised intact fibronectin
# Protocol: as §2
# No binding of the recombinant fragment FNIII7-10, including the RGD and synergy sites, to tenascin-C was detected in an ELISA assay.
# [9] = fragment bound (immobilised) to the mixed substratum
molecule,measurement,setting,value
"SEQ ID NO:4: 20 amino acid fragment of FNIII13 having the sequence of SEQ ID NO:4, made by solid phase synthesis (RRARVTDATETTITISWRTK; listed as Homo sapiens)",restoration of actin stress fibres and focal contacts on fibronectin/tenascin-C substratum,[1],largely restored
same,restoration of cell spreading on fibronectin/tenascin-C substratum,[2]; [9],restored cell spreading
fibronectin: Fibronectin prepared from horse serum by gelatin agarose chromatography,binding to tenascin-C in ELISA,[3],binds to substratum-immobilised tenascin-C in a dose-dependent manner
heparin [reference compound],effect on the FNIII13/syndecan-4 interaction,[4]; 0.5 mg/ml heparin,blocked
"FNIII13: recombinant 13th fibronectin type III repeat of the HepII site (SEQ ID NO:1) (protein, listed as Homo sapiens) NVSPPRRARVTDATETTITISWRTKTETITGFQVDAVPANGQTPIQRTIKPDVRSYTITGLQPGTDYKIYLYTLNDNARSSPVVIDAST",complex formation with tenascin-C in co-immunoprecipitation,[5],form complexes
same,FAK autophosphorylation at Y397,[6],largely restored FAK autophosphorylation
same,restoration of actin stress fibres and focal contacts on fibronectin/tenascin-C substratum,[1],largely restored
same,binding to the cell surface of syndecan-4 overexpressing T98G cells,[7],dose-dependent and heparin-competable manner; also recorded: several fold increased levels
same,attachment and spreading on the fragment alone as substratum,[2]; FNIII13 substratum without fibronectin,poorly attached and remained rounded
same,restoration of cell spreading on fibronectin/tenascin-C substratum,[2]; fragment added in solution together with the cells,restored
same,restoration of cell spreading on fibronectin/tenascin-C substratum,[2]; [9],could restore the cell spreading defect
same,FNIII13 bound to syndecan-4 in immunoprecipitation,"[4]; T98G:S4* cells, 100 μg/ml FNIII13, 1 h",detected
same,competition of tenascin-C binding to immobilised intact fibronectin,[8],competed for by FNIII13 in a concentration-dependent fashion
same,binding to tenascin-C in ELISA,[3],bound to tenascin-C in a dose-dependent manner reaching saturation

# — US8017725B2, “Use of heparin-binding domain of fibronectin for diagnosis and treatment of cancer” (Novartis Forschungesstiftung Zweigniederlassung Friedrich …, priority 2001, dated 2011)
